In series [1] the test system is apoA-I rHDL. Put plainly: Inactivation kinetics of human PON1 192 isozymes on rHDL-apoA-I (NTA/β-mercaptoethanol). Conditions: 50-fold molar excess rHDL-apoA-I; NTA and β-mercaptoethanol each 5 mM, 25° C. Format: biochemical. Here is the method:
(§1) FIGS. 5A-B are graphs showing the inactivation and catalytic stimulation of the human PON1 192R/Q isozymes. FIG. 5A is a line graph showing the inactivation kinetics of human PON1-192R and -192Q in the presence of rHDL-apoA-I. The delipidated isozymes (0.2 μM) were incubated with a 50-fold molar excess of rHDL-apoA-I in activity buffer, and subjected to inactivation by NTA and β-mercaptoethanol (each at 5 mM) at 25° C. Residual activity determined as above (FIG. 1) and data were fitted to a double-exponential function. FIG. 5B is a bar graph showing stimulation of the enzymatic activity of human PON1-192R and -192Q by rHDL-apoA-I. The delipidated isozymes were incubated with a 50-fold molar excess of rHDL-apoA-I, and enzymatic activity was determined with various substrates (at 1 mM for all the substrates, except TBBL at 0.25 mM). The activity is presented in relation to the initial activity of the delipidated enzymes (percentage of stimulation). Each bar represents the mean and S.D. of at least two independent measurements;
Human PON1-192R and Q isozymes purified from pooled blood samples [Gan, K. N., et al., Drug Metab Dispos, 1991. 19(1): p. 100-6] were kindly provided by Dr. Dragomir Draganov (University of Michigan, Ann Arbour), and stored in presence of 0.1% tergitol and 20% glycerol. Prior to assay, these samples were briefly delipidated [Gaidukov, L. and D. S. Tawfik, Biochemistry, 2005. 44(35): p. 11843-54] and dialyzed against activity buffer to remove the tergitol and glycerol that interfere with HDL binding. Dialyzed samples (0.2 μM) were incubated with rHDL (10 μM). Stability assays were performed at 25° C., in activity buffer supplemented with nitrilotriacetic acid (NTA) and β-mercaptoethanol, both at 5 mM. Data analysis was performed as described above for rePON1s. Stimulation of enzymatic activities was measured with various substrates at 1 mM concentration, except for TBBL (0.25 mM).
The progress of inactivation of human PON1 isozymes anchored on rHDL-apoA-I is illustrated in FIG. 5A. Inactivation of both isozymes followed a two-phase kinetics with similar inactivation rates, but different partitioning between the HDL-bound and unbound phases, as detailed in Table 4 hereinbelow. Amplitudes (A) and kinetic rates of inactivation (k^inactiv) were derived by fitting the data to a double-exponential curve.

Series [2] deals with rHDL-apoA-I. Put plainly: Stimulation of enzymatic activity of human PON1 192 isozymes by rHDL-apoA-I. In kind it is biochemical. The conditions noted are these: all the lactones tested; rHDL/PON1 ratio of 50. Here is the method: as §1, with “Each bar represents the mean and S.D. of at least two independent measurements;” left out
Human PON1-192R and Q isozymes purified from pooled blood samples [Gan, K. N., et al., Drug Metab Dispos, 1991. […] Stimulation of enzymatic activities was measured with various substrates at 1 mM concentration, except for TBBL (0.25 mM).
HDL-mediated stimulation of the enzymatic activity of human PON1 isozymes was determined by incubating PON1 with the highest rHDL-apoA-I concentration (corresponding to the rHDL/PON1 ratio of 50) (FIG. 5B). […]

Series [3] relates to apoA-I rHDL. Briefly: Inactivation kinetics of rePON1 192 isozymes bound to rHDL-apoA-I (EDTA/β-mercaptoethanol, residual phenyl acetate hydrolysis). In kind it is biochemical. Conditions: apoA-I rHDL, 50-fold molar excess; EDTA and β-mercaptoethanol, 37° C. Here is the method:
(§2) FIG. 1 is a graph showing the inactivation kinetics of the wild-type rePON1-192K (SEQ ID NO:2), -192R (SEQ ID NO:4) and -192Q (SEQ ID NO:6) isozymes, bound to rHDL-apoA-I, or in buffer. Delipidated enzymes were incubated with a 50-fold excess of rHDL-apoA-I, or in activity buffer, and subjected to inactivation in the presence of EDTA (5 mM) and β-mercaptoethanol (10 mM) at 37° C. Residual activity at various time points was determined by initial rates of phenyl acetate hydrolysis (2 mM) and plotted as percent of the activity at time zero. Data were fitted to a single exponential for wild-type rePON1-192K on rHDL-apoA-I, and to double-exponentials for the remaining samples. The inactivation rate constants and amplitudes were derived from this fit;
(§3) Inactivation rates of rePON1s were measured as described [Gaidukov, L. and D. S. Tawfik, Biochemistry, 2005. 44(35): p. 11843-54]. Briefly, rePON1 samples were delipidated using Bio-Beads SM-2 (BioRad) and incubated in buffer, or with 50-fold molar excess of rHDL-apoA-I. EDTA (10 mM) and β-mercaptoethanol (20 mM) were added, and samples were incubated at 37° C. Residual activity at different time points was determined with 2 mM phenyl acetate, and inactivation rates were fitted to either mono- or double-exponentials [Gaidukov, L. and D. S. Tawfik, Biochemistry, 2005. 44(35): p. 11843-54].
(§4) The resultant inactivation profiles of wt rePON1 (SEQ ID NO: 2), rePON1-192Q (SEQ ID NO: 6) and rePON1-192R (SEQ ID NO: 4), were fitted to exponential curves as illustrated in FIG. 1.

Series [4] deals with apoA-I rHDL. Briefly: Surface plasmon resonance binding of Δ20-rePON1 192 isozymes to immobilized rHDL-apoA-I. Conditions: relative to the Q isozyme. Here is the method:
FIGS. 2A-C are sensorgrams for the binding of wt Δ20-rePON1-192K—SEQ ID NO:8 (FIG. 2A), Δ20-rePON1-192R—SEQ ID NO:10 (FIG. 2B) and Δ20-rePON1-192Q—SEQ ID NO:12 (FIG. 2C) isozymes to rHDL-apoA-I. Biotinylated rHDL-apoA-I particles were immobilized onto the streptavidin surface (SA chip), and a series of PON1 concentrations were injected over the immobilized and blank surfaces to obtain the net binding response. Binding was performed at 25° C. Association and dissociation phases were fitted to a single exponential, from which kinetic rate constants were derived. PON1 concentrations in all the sensorgrams are (from bottom to top) 25, 40, 60, 80, 100, 150 and 200 nM;
Surface plasmon resonance (SPR) measurements: rHDL-apoA-I particles containing 0.7% of N-biotinyl-dipalmitoylphosphatidylethanolamine (N-biotynyl-DPPE; Avanti Polar Lipids) were prepared and purified as described [Gaidukov, L. and D. S. Tawfik, Biochemistry, 2005. 44(35): p. 11843-54]. SPR was performed on BIAcore 3000 (Uppsala, Sweden) as described [Gaidukov, L. and D. S. Tawfik, Biochemistry, 2005. 44(35): p. 11843-54]. Briefly, the biotinylated rHDL particles were adsorbed on streptavidin (SA5) chip, and Δ20-rePON1 isozymes were injected over the immobilized and blank surfaces to obtain the net binding response. Binding rate constants were obtained by fitting of association and dissociation phases to single exponentials as described [Gaidukov, L. and D. S. Tawfik, Biochemistry, 2005. 44(35): p. 11843-54].
The above results were further supported by affinity measurements using surface plasmon resonance. It was previously shown that HDL affinity of the intact rePON1 is very high (sub-nanomolar) and could not be determined accurately using surface plasmon resonance [Gaidukov, L., and Tawfik, D. S. (2005)Biochemistry 44, 11843-11854]. In contrast, binding affinity of the truncated variant lacking the first 20 amino acids of the hydrophobic N-terminus (Δ20-rePON1) could be amply determined. Therefore, the truncated variants of PON1 192 isozymes were prepared and their HDL binding affinities measured. Typical binding sensorgrams between Δ20-rePON1 isozymes and the immobilized HDL particles are portrayed in FIGS. 2A-C, and the derived rate and affinity constants are summarized in Table 2 herein below.
For orientation: Surface plasmon resonance follows binding to a sensor surface in real time, without labels.

A short description of series [5]: Inactivation kinetics of rePON1 192 isozymes in activity buffer. In kind it is biochemical. Conditions: EDTA and β-mercaptoethanol, 37° C. Here is the method: as §2, §3, §4
Series [6] concerns apoA-I rHDL. Put plainly: Stimulation of enzymatic activity of rePON1 192 isozymes by rHDL-apoA-I. In kind it is biochemical. The conditions noted are these: for Vmax (%) activation factor: relative to delipidated enzyme (100%). An excerpt:
The activity is presented in relation to the initial activity of the delipidated enzymes (percentage of stimulation). Data were fitted to the Langmuir saturation curve, from which the activation factor (Vmax) and the apparent affinity (Kapp) were derived;
Stimulated activity is presented as the percentage of the initial activity of the delipidated enzymes (corresponds to 100%). Data were fitted to the Langmuir saturation curve, from which the activation factor (Vmax) and the apparent affinity (Kapp) were derived;
Delipidated rePONs at 0.2 μM were incubated with a range of rHDL concentrations (0.1-10 μM) for 3 hrs at 37° C. Enzymatic activity was determined in activity buffer (50 mM Tris pH 8.0, 1 mM CaCl2) with substrates at 1 mM concentrations as described [Gaidukov, L. and D. S. Tawfik, Biochemistry, 2005. 44(35): p. 11843-54]. 5-(thiobutyl)-butyrolactone (TBBL) was applied at 0.25 mM, and product formation was monitored spectrophotometrically at 412 nm using 5,5′-dithio-bis-2-nitrobenzoic acid (DTNB) as described [Khersonsky, O. and D. S. Tawfik, Chembiochem, 2006. 7(1): p. 49-53].
Stimulation of the enzymatic activity was examined by incubating rePON1 isozymes with a range of rHDL concentrations (at the HDL/PON ratio of 0.5-50), and measuring the catalytic activity with various substrates as detailed hereinabove. FIGS. 3A-B illustrate the enzymatic activity of the rePON1 isozymes with δ-nonanoic lactone as substrate (FIG. 3A) and thiobutyl butiryl lactone (TBBL) as substrate (FIG. 3B). FIGS. 4A-D illustrate the enzymatic activity of the rePON1 isozymes with γ-dodecanoic lactone as substrate (FIG. 4A), δ-valerolactone as substrate (FIG. 4B), phenyl acetate as substrate (FIG. 4C) and paraoxon as substrate (FIG. 4D). Data were fitted to the Langmuir saturation curve to give the activation factor Vmax (in percent relative to the delipidated PON1) and the apparent affinity Kapp.

For series [7], the target named is apoA-I rHDL. The conditions noted are these: previously shown; could not be determined accurately by SPR; cited from earlier work.
Setting [8] is: substrate γ-dodecanoic lactone 1 mM.
Setting [9] is: substrate δ-nonanoic lactone 1 mM.

B1: human PON1-192R: human PON1 192R isozyme purified from pooled blood samples (protein)
chain: AKLIALTLLGMGLALFRNHQSSYQTRLNALREVQPVELPNCNLVKGIETGSEDLEILPNGLAFISSGLKYPGIKSFNPNSPGKILLMDLNEEDPTVLELGITGSKFDVSSFNPHGISTFTDEDNAMYLLVVNHPDAKSTVELFKFQEEEKSLLHLKTIRHKLLPNLNDIVAVGPEHFYGTNDHYFLDPYLRSWEMYLGLAWSYVVYYSPSEVRVVAEGFDFANGINISPDGKYVYIAELLAHKIHVYEKHANWTLTPLKSLDFNTLVDNISVDPETGDLWVGCHPNGMKIFFYDSENPPASEVLRIQNILTEEPKVTQVYAENGTVLQGSTVASVYKGKLLIGTVFHKALYCEL
On to B1, for which, in series [1], the “A2(%) (slow phase, HDL-bound fraction)” value turned out to be 87%; the “k1^inactiv (first, fast phase)” value worked out at 0.4 h⁻¹; the “k2^inactiv (second, slow phase)” value stood at 0.01 h⁻¹. For the same molecule, in series [2], the “fold higher activation level than 192Q” value is listed as “about 2 fold”.

B2: wt rePON1-192K: recombinant wild-type PON1 variant G3C9 with C-terminal His8-tag, lysine at position 192, close homologue of rabbit PON1 (protein)
chain: MAKLTALTLLGLGLALFDGQKSSFQTRFNVHREVTPVELPNCNLVKGVDNGSEDLEILPNGLAFISSGLKYPGIMSFDPDKSGKILLMDLNEEDPVVLELGITGNTLDISSFNPHGISTFTDEDNTVYLLVVNHPDSSSTVEVFKFQEEEKSLLHLKTIRHKLLPSVNDIVAVGPEHFYATNDHYFADPYLKSWEMHLGLAWSFVTYYSPNDVRVVAEGFDFANGINISPDGKYVYIAELLAHKIHVYEKHANWTLTPLKSLDFDTLVDNISVDPVTGDLWVGCHPNGMRIFYYDPKNPPGSEVLRIQDILSEEPKVTVVYAENGTVLQGSTVAAVYKGKLLIGTVFHKALYCEL
modifications: C-terminal His8 tag; WT rePON1-192K
notes: recombinant wild-type PON1 variant G3C9 with C-terminal His8-tag, lysine at position 192, close homologue of rabbit PON1
As to B2, in series [3], the “A2 (%) (amplitude of second, slow inactivation phase = HDL-bound fraction)” value was 100%. Moreover, the “k2^inactiv (second, slow phase)” value in series [3] stood at 0.01 h⁻¹; in series [5], 0.2 h⁻¹. Also, the “fold higher HDL binding affinity than the Q isozyme” value in series [4] was determined as 3 fold. Besides, the “k1^inactiv (first, fast phase)” value in series [5] was found to be 4.5 h⁻¹. For the same molecule, the “Kapp (apparent affinity for HDL stimulation)” value stood at 0.5 ± 0.1 µM in series [6] (substrate TBBL 0.25 mM); 0.6 ± 0.1 µM in series [6] (substrate paraoxon 1 mM); 0.5 ± 0.1 µM in series [6] (substrate phenyl acetate 1 mM); 1.2 ± 0.1 µM in series [6] (setting [8]); 1.3 ± 0.1 µM in series [6] (setting [9]); 1.3 ± 0.1 µM in series [6] (substrate δ-valerolactone 1 mM). The “Vmax (%) activation factor” value in series [6] (substrate TBBL 0.25 mM) is given as 791 ± 10%; in series [6] (substrate paraoxon 1 mM), 222 ± 2%; in series [6] (substrate phenyl acetate 1 mM), 425 ± 4%; in series [6] (setting [8]), 1830 ± 22%; in series [6] (setting [9]), 1580 ± 19%; in series [6] (substrate δ-valerolactone 1 mM), 1724 ± 23%. In addition, in series [7], the “HDL affinity of the intact rePON1” value was “sub-nanomolar”.

The record behind these values is patent US20100028924A1, “Method Of Diagnosing Pon1-Hdl Associated Lipid Disorders” (Rappaport Family Institute Research in the Medical Sciences, priority 2006, published 2010).
